One assay concerns the target AXL (human, UniProt P30530 26-894, limits assumed). As to the kind of experiment: IP/MS, U87 cells (summary of Example 1). As to the method: (§1) Lysates were immunoprecipitated with FLAG affinity matrix and eluted with FLAG peptide. […] Protein gel slices were excised and in-gel digestion performed as previously described (83), with minor modifications. Gel slices were washed with 1:1 A cetonitrile and 100 mM ammonium bicarbonate for 30 min then dehydrated with 100% acetonitrile for 10 min until shrunk. The excess acetonitrile was then removed and the slices dried in speed-vacuum at room temperature for 10 min. Gel slices were reduced with 5 mM DTT for 30 min at 56° C. in an air thermostat, cooled down to room temperature, and alkylated with 11 mM IAA for 30 min with no light. Gel slices were then washed with 100 mM of ammonium bicarbonate and 100% acetonitrile for 10 min each. Excess acetonitrile was removed and dried in a speed-vacuum for 10 min at room temperature and the gel slices were re-hydrated in a solution of 25 ng/μl trypsin in 50 mM ammonium bicarbonate for 30 min on ice and digested overnight at 37° C. in an air thermostat. Digested peptides were collected and further extracted from gel slices in extraction buffer (1:2 ratio by volume of 5% formic acid:acetonitrile) at high speed, shaking in an air thermostat. […] The following modifications were used for protein identification and quantification: oxidation of methionine (M), acetylation of the protein N-terminus, and deamination for asparagine or glutamine (NQ).

The next assay deals with T1, EGFR (human, UniProt P00533 25-1210).
T1 construct: also called epidermal growth factor receptor
Description: IP/MS, U87 cells (summary of Example 1). As to the method: as §1

For another assay, the target named is TRIM16 (human, UniProt O95361 1-564, limits assumed). As to the kind of experiment: IP/MS, LZTR1 R810W-FLAG, U87. The method, boiled down: (§2)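 Gel slices were reduced with 5 mM DTT, alkylated with 11 mM IAA and digested overnight at 37° C. with trypsin. Peptides were analysed on an Orbitrap Fusion Tribrid by LC-MS/MS.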
The target of a further assay is T2, USP4 (human, UniProt Q13107 1-963, limits assumed).
T2 sequence (looked up): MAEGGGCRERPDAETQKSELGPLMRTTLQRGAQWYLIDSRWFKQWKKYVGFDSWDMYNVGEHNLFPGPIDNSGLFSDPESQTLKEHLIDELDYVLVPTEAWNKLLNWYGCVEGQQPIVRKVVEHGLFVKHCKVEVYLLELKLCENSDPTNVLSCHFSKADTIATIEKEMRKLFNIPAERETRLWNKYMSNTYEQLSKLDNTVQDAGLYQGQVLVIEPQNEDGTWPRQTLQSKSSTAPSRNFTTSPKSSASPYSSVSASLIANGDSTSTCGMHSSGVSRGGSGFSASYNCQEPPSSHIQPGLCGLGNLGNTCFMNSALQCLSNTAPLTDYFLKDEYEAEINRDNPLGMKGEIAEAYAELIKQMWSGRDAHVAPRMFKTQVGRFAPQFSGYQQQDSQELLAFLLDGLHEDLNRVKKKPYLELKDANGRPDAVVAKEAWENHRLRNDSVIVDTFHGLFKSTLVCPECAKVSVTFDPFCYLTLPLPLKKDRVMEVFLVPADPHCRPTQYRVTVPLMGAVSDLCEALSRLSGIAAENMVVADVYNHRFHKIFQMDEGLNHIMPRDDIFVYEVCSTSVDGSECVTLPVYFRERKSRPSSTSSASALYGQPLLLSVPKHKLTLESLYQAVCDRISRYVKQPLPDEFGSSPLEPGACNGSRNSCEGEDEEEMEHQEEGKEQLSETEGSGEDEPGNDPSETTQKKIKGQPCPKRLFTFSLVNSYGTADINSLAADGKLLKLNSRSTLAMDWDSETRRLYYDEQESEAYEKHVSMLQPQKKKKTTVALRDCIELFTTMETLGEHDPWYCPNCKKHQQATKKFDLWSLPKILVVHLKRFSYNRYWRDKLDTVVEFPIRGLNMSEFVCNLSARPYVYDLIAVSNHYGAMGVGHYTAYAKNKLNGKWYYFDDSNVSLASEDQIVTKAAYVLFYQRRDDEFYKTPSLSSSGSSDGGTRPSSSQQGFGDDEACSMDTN
Description: IP/MS, LZTR1 R810W-FLAG, U87. In short, it runs like this:
as §2

These results are taken from patent publication US20250262210A1 (TRUSTEES OF COLUMBIA UNIVERSITY IN THE CITY OF NEW YORK, published 2025).

Numbering of substitutions follows the chain as printed. In names and notes the source's numbering stands.

B1: LZTR1-FLAG (other, human, UniProt Q8N653 1-840, looked up)
chain: MAGPGSTGGQIGAAALAGGARSKVAPSVDFDHSCSDSVEYLTLNFGPFETVHRWRRLPPCDEFVGARRSKHTVVAYKDAIYVFGGDNGKTMLNDLLRFDVKDCSWCRAFTTGTPPAPRYHHSAVVYGSSMFVFGGYTGDIYSNSNLKNKNDLFEYKFATGQWTEWKIEGRLPVARSAHGATVYSDKLWIFAGYDGNARLNDMWTIGLQDRELTCWEEVAQSGEIPPSCCNFPVAVCRDKMFVFSGQSGAKITNNLFQFEFKDKTWTRIPTEHLLRGSPPPPQRRYGHTMVAFDRHLYVFGGAADNTLPNELHCYDVDFQTWEVVQPSSDSEVGGAEVPERACASEEVPTLTYEERVGFKKSRDVFGLDFGTTSAKQPTQPASELPSGRLFHAAAVISDAMYIFGGTVDNNIRSGEMYRFQFSCYPKCTLHEDYGRLWESRQFCDVEFVLGEKEECVQGHVAIVTARSRWLRRKITQARERLAQKLEQEAAPVPREAPGVAAGGARPPLLHVAIREAEARPFEVLMQFLYTDKIKYPRKGHVEDVLLIMDVYKLALSFQLCRLEQLCRQYIEASVDLQNVLVVCESAARLQLSQLKEHCLNFVVKESHFNQVIMMKEFERLSSPLIVEIVRRKQQPPPRTPLDQPVDIGTSLIQDMKAYLEGAGAEFCDITLLLDGHPRPAHKAILAARSSYFEAMFRSFMPEDGQVNISIGEMVPSRQAFESMLRYIYYGEVNMPPEDSLYLFAAPYYYGFYNNRLQAYCKQNLEMNVTVQNVLQILEAADKTQALDMKRHCLHIIVHQFTKVSKLPTLRSLSQQLLLDIIDSLASHISDKQCAELGADI
notes: Expressed in HEK 293T, HeLa or U87 cells; used as cell lysate; also called LZTR1 wild type-FLAG; LZTR1 WT; not shown: FLAG tag at the C-terminus
Turning to B1, the binding result with AXL and with EGFR was “binds” throughout.

B2: LZTR1 R810W-FLAG (other, human, UniProt Q8N653 1-840, looked up)
chain: B1 chain with R810W
notes: Stably expressed in U87 cells by lentivirus; also called LZTR1-FLAG-R810W; LZTR1 RW; not shown: FLAG tag
Consider B2, for which the binding result with TRIM16 and with USP4 was “binds” each time.
